The assay addresses T1, α1-antitrypsin (human, UniProt P01009 25-418).
T1 construct: alpha-1-antitrypsin (SERPINA1), human, plasma-derived, 52 kDa; The activity assays used Prolastin; also called α1AT; alpha-1 antitrypsin; source: bought: Merck (A9024) or GRIFOLS (Prolastin), purified from human plasma
Nature of the assay: SPR; TMPRSS2 amine-coupled (NHS/EDC) on an MUA-functionalised gold chip, Reichert SR7000; α1AT flowed at 0-20 µM in 10 mM HEPES, 150 mM NaCl, 0.05 % Tween-20, pH 7.5, 10 µl/min; equilibrium analysis. The conditions noted are these: both partners purified. On the technique in general: Surface plasmon resonance follows binding to a sensor surface in real time, without labels.

T1 sequence (P01009 25-418): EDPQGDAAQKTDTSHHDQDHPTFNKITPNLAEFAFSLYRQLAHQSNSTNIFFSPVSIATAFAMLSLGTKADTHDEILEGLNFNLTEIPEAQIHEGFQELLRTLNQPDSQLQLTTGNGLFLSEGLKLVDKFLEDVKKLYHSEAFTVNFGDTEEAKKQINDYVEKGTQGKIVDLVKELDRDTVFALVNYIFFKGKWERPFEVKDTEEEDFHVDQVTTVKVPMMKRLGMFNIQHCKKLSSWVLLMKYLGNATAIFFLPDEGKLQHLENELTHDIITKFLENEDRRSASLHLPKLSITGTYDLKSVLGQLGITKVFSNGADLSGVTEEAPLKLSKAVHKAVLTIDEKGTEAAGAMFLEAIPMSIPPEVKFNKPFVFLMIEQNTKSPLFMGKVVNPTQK

B1: recombinant TMPRSS2 (enzyme)
chain: not shown
notes: TMPRSS2, human, recombinant protein from Creative BioMart; No catalogue number or construct limits are printed; The cell-associated activity assay used TMPRSS2 expressed from Addgene 53887 in HEK293T cells; also called recombinant human TMPRSS2; transmembrane serine protease 2; source: bought: Creative BioMart
One may read the Kd as the concentration at which binding is half-saturated. A high value points to lower affinity. B1 gave a Kd of 941 ± 297 nM.

The values are drawn from paper PMC7979852, “Alpha-1 antitrypsin inhibits TMPRSS2 protease activity and SARS-CoV-2 infection” (Nature Communications, 2021).
